This note sets out measurements from paper PMC7185714, “Structure and conformational cycle of a bacteriophage-encoded chaperonin” (PLoS ONE, 2020).

The target of data set [1] is T1, GroEL from E. coli (E. coli, UniProt P0A6F5 1-548).
In data set [2] the target is chaperonin gp146 (ɸEL) from the phage EL of Pseudomonas aeruginosa (Pseudomonas bacteriophage EL).
Data set [3] has as its target T2, ɸEL (gp146) (Pseudomonas phage EL, UniProt Q2Z0T5).
T2 construct: tetradecameric double ring (~863 kDa) or single-ring heptamer (~431 kDa, with ATP and in the crystals)
T2 sequence (Q2Z0T5 1-558): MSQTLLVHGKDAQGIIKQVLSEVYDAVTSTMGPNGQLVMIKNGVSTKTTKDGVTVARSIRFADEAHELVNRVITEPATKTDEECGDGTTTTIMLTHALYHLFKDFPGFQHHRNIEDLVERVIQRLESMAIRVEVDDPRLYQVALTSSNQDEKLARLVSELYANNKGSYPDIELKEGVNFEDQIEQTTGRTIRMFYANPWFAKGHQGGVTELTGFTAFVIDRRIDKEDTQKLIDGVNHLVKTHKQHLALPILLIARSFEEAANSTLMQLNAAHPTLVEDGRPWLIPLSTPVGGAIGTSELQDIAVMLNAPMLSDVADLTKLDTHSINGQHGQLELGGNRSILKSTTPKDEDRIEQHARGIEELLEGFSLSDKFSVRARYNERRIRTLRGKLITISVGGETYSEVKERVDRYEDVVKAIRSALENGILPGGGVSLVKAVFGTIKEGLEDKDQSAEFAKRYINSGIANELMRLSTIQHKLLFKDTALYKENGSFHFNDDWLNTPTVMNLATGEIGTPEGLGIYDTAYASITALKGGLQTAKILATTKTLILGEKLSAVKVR
The data set can be described thus: cryo-EM structure ([…] Å). It counts as binding. The settings on record: double ring, D7, pH 7.5, Mg2+; slowly hydrolysed ATP analogue; pseudo-atomic model.

For data set [4], the target named is T2, ɸEL (gp146). As to the kind of experiment: cryo-EM structure ([…] Å). The data set is classed as binding. The settings on record: double ring, D7, pH 7.5, Mg2+; pseudo-atomic model; ADP also modelled in crystal form II (6TMU, chains B, D, F, partial occupancy).
Data set [5] deals with chaperonin gp146 (ɸEL) from the phage EL of Pseudomonas aeruginosa (Pseudomonas bacteriophage EL). As to the kind of experiment: crystal structure; ɸEL crystallised with 2 mM ATP, 5 mM BeSO4 and 20 mM NaF; crystal forms I (4.03 Å) and II (3.54 Å).
Data set [6] shares this target. As to the kind of experiment: SEC-MALS; ɸEL at 2 g/L, with 2 mM ATP, 20 mM HEPES-NaOH pH 7.5, 100 mM KCl, 2 mM Mg acetate, 25°C.
Data set [7] has the same target. The data set can be described thus: cryo-EM structure; apo-ɸEL, no nucleotide, single particle analysis, C2 symmetry, 3.45 Å.
For data set [8] the target is unchanged. The data set can be described thus: SEC-MALS; ɸEL at 2 g/L, no nucleotide, 20 mM HEPES-NaOH pH 7.5, 100 mM KCl, 2 mM Mg acetate (also run at 50 mM KCl), 25°C.
Data set [9] has the same target. The data set can be described thus: SEC-MALS; ɸEL at 2 g/L, with 2 mM ATP, 20 mM HEPES-NaOH pH 7.5, 50 mM KCl, 4 mM Mg acetate, 25°C.
For data set [10] the target is unchanged. As to the kind of experiment: cryo-EM structure; ɸEL with ADP, single particle analysis, D7 symmetry, 5.9 Å.
For data set [11] the target is unchanged. As to the kind of experiment: cryo-EM structure; ɸEL with ATPγS, single particle analysis, D7 symmetry, 5.8 Å.
The target is the same in data set [12]. The data set can be described thus: SEC-MALS; ɸEL at 2 g/L, with 2 mM ADP, 20 mM HEPES-NaOH pH 7.5, 100 mM KCl, 2 mM Mg acetate (also run at 50 mM KCl), 25°C.
Data set [13] deals with T2, ɸEL (gp146). The data set can be described thus: X-ray crystal structure ([…] Å, crystal form I). The data set is classed as binding. The settings on record: ATP added with BeSO4/NaF; ATP and ADP-BeFx not distinguishable, modelled as ATP with Mg2+; single-ring heptamer, equatorial domain site; also in form II (6TMU, 3.54 Å; chains A, C, E, G).
The target of another data set is T3, GroEL (Escherichia coli, UniProt P0A6F5).
T3 construct: purified GroEL tetradecamer; source and preparation not described
The data set can be described thus: NADH-coupled ATPase assay. It counts as biochemical. As to conditions: 1 mM ATP, 50 mM Tris-HCl pH 7.5, 10 or 100 mM KCl, 10 mM MgCl2, 25°C; without GroES; rates only in figure.

The target in data set [14] is T1, GroEL from E. coli. As to the kind of experiment: cell-based or functional assay.
Substrate in data set [15]: Nc1ncnc2c1ncn2[C@@H]1O[C@H](COP(=O)(O)OP(=O)(O)OP(=O)(O)O)[C@@H](O)[C@H]1O
The data set can be described thus: NADH-coupled ATPase assay (pyruvate kinase/lactate dehydrogenase), Hill fit. The settings on record: high salt: 50 mM Tris-HCl pH 7.5, 100 mM KCl, 10 mM MgCl2, 25°C, Hill coefficient fitted. It counts as biochemical, Pseudomonas phage EL.

T1 sequence (P0A6F5 whole entry): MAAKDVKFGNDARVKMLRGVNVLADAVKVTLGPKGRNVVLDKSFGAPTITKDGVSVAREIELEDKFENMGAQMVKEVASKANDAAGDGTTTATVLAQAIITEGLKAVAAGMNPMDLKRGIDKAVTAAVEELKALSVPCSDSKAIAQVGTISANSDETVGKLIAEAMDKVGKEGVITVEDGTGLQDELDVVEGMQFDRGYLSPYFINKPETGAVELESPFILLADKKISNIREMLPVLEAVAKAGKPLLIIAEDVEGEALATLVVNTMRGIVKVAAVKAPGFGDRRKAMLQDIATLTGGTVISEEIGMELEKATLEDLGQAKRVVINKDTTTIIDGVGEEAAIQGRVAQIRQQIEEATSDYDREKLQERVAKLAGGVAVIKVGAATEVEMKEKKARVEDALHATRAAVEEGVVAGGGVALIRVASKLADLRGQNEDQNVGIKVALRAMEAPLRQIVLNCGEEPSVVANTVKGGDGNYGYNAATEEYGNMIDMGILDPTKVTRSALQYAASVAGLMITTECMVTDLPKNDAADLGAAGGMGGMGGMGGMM
T3 sequence (P0A6F5 2-548): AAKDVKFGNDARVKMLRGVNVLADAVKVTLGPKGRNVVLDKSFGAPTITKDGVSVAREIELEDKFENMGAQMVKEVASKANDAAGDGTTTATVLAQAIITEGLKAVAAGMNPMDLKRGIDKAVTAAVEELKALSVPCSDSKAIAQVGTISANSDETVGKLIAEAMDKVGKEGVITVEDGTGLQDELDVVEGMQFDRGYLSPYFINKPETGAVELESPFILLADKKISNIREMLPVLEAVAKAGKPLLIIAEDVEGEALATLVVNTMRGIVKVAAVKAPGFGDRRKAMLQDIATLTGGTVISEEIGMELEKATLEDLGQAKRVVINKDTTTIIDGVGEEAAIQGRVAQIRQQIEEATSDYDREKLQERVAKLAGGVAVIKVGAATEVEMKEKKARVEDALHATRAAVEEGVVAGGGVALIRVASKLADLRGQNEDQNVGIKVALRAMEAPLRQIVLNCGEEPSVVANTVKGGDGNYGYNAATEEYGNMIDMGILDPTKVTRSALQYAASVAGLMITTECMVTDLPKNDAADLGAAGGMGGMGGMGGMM

“double mutant of maltose binding protein (DM-MBP), denatured (from UniProt P0AEX9 27-396) (natural protein)” showed a GroEL ATPase activity with denatured DM-MBP, at 10 and 100 mM KCl, 1 mM ATP in the data set with GroEL from E. coli [1] of 2 fold. This molecule yielded a decrease in ɸEL ATPase activity with denatured DM-MBP, at 10 mM KCl, 1 mM ATP in [2] of 60%.
Take `Nc1ncnc2c1ncn2[C@@H]1O[C@H](COP(=O)(O)OP(=O)(O)OP(O)(O)=S)[C@@H](O)[C@H]1O` [ATPγS]: the “cryo-EM structure (5.8 Å)” value on ɸEL (gp146) [3] is “we also determined the cryo-EM structure of ɸEL in the presence of the slowly hydrolyzing”.
As to `Nc1ncnc2c1ncn2[C@@H]1O[C@H](COP(=O)(O)OP(=O)(O)O)[C@@H](O)[C@H]1O` [ADP], the “cryo-EM structure (5.9 Å)” value on ɸEL (gp146) [4] is recorded as “we determined the solution structure of ɸEL in the presence of ADP by single-particle cryo-EM”.
Consider “chaperonin gp146 (ɸEL) from the phage EL of Pseudomonas aeruginosa (natural protein)”, for which the stoichiometry N in [5] is 7; in [6] it was 7; in data set [7], 14; in data set [8], 14; in [9], 14; in data set [10] it was 14. For the same molecule, the stoichiometry N in [11] and in data set [12] was 14 throughout.
For the molecule `Nc1ncnc2c1ncn2[C@@H]1O[C@H](COP(=O)(O)OP(=O)(O)OP(=O)(O)O)[C@@H](O)[C@H]1O` [ATP], on ɸEL (gp146) [13], the “X-ray crystal structure (4.03 Å, crystal form I)” value is recorded as “All subunits as judged from the electron density had either ATP or ADP•BeFX bound”. Besides, the “NADH-coupled ATPase assay” value on GroEL is “ATPase activity of GroEL and ɸEL in presence and absence of a two-fold excess”.

B1: E. coli GroES (natural protein)
chain: MNIRPLHDRVIVKRKEVETKSAGGIVLTGSAAAKSTRGEVLAVGNGRILENGEVKPLDVKVGDIVIFNDGYGVKSEKIDNEEVLIMSESDILAIVEA
Regarding B1, in the data set with GroEL from E. coli [14], the “decrease in GroEL ATPase activity with a 2-fold molar excess of GroES, at 10 and 100 mM KCl, 1 mM ATP” value is roughly 50%.

B2: ɸEL (gp146) (Pseudomonas phage EL) (protein)
chain: T2 sequence (Q2Z0T5 1-558)
notes: tetradecameric double ring (~863 kDa) or single-ring heptamer (~431 kDa, with ATP and in the crystals)
For the molecule B2, in data set [15], the Michaelis-Menten constant (Km) turned out to be 72 ± 8 µM and the kcat was 9.6 ± 0.12 s⁻¹ (per tetradecamer).
